Consider 2 molecules from publication PMC8790524, “Probing the binding of interleukin-23 to individual receptor components and the IL-23 heteromeric receptor complex in living cells using NanoBRET” (Cell Chemical Biology, 2022).

Values joined by “and” are separate entries in the source; they are usually repeats but may differ in a detail not shown here. Identical values can stand only once.

The target in experiment [1] is wild-type IL23R heteromer (IL23R and IL12Rβ1) (UniProt Q5VWK5-1 24-629; P42701-1 24-662). Put plainly: cell-based or functional assay.
In experiment [2] the target is T1, NL-IL23R co-expressed with SNAP-tag fused IL12Rβ1 (UniProt Q5VWK5 24-629; P42701 24-662). The experiment can be described thus: cell-based or functional assay.
In experiment [3] the target is T2, NL-IL23R co-expressed with untagged IL12Rβ1 (heteromeric IL-23 receptor complex) (UniProt Q5VWK5 24-629; P42701-1 24-662). Put plainly: cell-based or functional assay.
Experiment [4] addresses NL-IL12Rβ1 co-expressed with HaloTag-IL23R (UniProt P42701 24-662; Q5VWK5 24-629, HaloTag NanoBRET 618 ligand bound to the HaloTag). Put plainly: cell-based or functional assay.
In experiment [5] the target is T3, NL-IL23R co-expressed with HaloTag fused IL12Rβ1 (UniProt Q5VWK5 24-629; P42701 24-662). The experiment can be described thus: cell-based or functional assay.
Experiment [6] deals with T2, NL-IL23R co-expressed with untagged …. The experiment can be described thus: FRET or BRET; NanoBRET competition on living HEK293T cells co-transfected with NL-IL23R and IL12Rβ1: titration of unlabelled IL-23 against several concentrations of IL23-TMR; HBSS with 1 mg/ml BSA, 1 h; Ki by Cheng-Prusoff or by linear regression of IC50 against IL23-TMR concentration. Conditions: one partner purified. (In general: In BRET a luciferase serves as donor, and the signal depends on an acceptor being close.)

In experiment [7] the target is T1, NL-IL23R co-expressed with SNAP-tag …. The experiment can be described thus: FRET or BRET; NanoBRET saturation binding of IL23-TMR to living HEK293T cells transiently expressing the NL-fused receptor (alone or 1:1 with the partner receptor plasmid); HBSS with 1 mg/ml BSA, 1 h, 37.5°C; non-specific binding with an excess of unlabelled IL-23 (50 nM to 1 μM). The conditions noted are these: one partner purified.

Experiment [8] has as its target T4, NL-IL12Rβ1 co-expressed with unlabeled IL23R (UniProt P42701 24-662; Q5VWK5-1 24-629).
T4 construct: IL-12 receptor subunit β1 (IL12Rβ1), full-length, synthesised without its endogenous signal peptide; Gly-Ser-Arg linker between NanoLuciferase and its N terminus; IL-23 receptor (IL23R) from the Origene IL23R-MYCDDK expression plasmid; called unlabeled or untagged in the results; also called NL-IL12Rβ1:IL23R complex; NL-IL12Rβ1 + IL23R; source: HEK293T, transiently co-transfected (1:1 or 1:10 …)
The description is as above. The conditions noted are these: one partner purified.

For experiment [9], the target named is T5, NanoLuciferase-tagged full-length IL23R (UniProt Q5VWK5 24-629).
T5 construct: IL-23 receptor (IL23R), full-length, synthesised without its endogenous signal peptide; Gly-Ser-Arg linker between NanoLuciferase and its N terminus; Open reading frame: N-terminal IL-6 secretion signal, NanoLuciferase, Gly-Ser-Arg, IL23R; in a pNLF vector; also called NL-IL23R; IL6SS-NL-IL23R; source: HEK293T, transiently transfected, on living cells; not shown: NanoLuciferase, N-terminal, kept
T5 sequence (looked up): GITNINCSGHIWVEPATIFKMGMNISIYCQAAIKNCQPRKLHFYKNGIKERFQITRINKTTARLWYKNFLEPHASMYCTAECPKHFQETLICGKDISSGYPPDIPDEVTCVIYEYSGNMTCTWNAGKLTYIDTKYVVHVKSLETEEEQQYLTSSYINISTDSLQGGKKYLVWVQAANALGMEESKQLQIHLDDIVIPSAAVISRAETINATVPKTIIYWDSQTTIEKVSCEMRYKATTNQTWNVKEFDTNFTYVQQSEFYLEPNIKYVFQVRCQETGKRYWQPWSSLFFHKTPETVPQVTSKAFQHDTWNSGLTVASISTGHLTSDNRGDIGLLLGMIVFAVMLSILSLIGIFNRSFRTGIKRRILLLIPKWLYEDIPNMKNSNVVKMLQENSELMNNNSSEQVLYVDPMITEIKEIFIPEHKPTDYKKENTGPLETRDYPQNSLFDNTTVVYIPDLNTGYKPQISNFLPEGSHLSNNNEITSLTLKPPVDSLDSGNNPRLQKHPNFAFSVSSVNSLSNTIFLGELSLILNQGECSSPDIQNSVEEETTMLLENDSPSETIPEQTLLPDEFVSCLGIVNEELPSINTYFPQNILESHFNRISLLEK
Described as above. The conditions noted are these: one partner purified.

Experiment [10] addresses T2, NL-IL23R co-expressed with untagged …. Described as above. The conditions noted are these: one partner purified.
Experiment [11] concerns the target T6, NanoLuciferase-tagged full-length IL12Rβ1 (UniProt P42701 24-662).
T6 construct: IL-12 receptor subunit β1 (IL12Rβ1), full-length, synthesised without its endogenous signal peptide; Gly-Ser-Arg linker between NanoLuciferase and its N terminus; Open reading frame: N-terminal IL-6 secretion signal, NanoLuciferase, Gly-Ser-Arg, IL12Rβ1; in a pNLF vector; also called NL-IL12Rβ1; IL6SS-NL-IL12Rβ1; source: HEK293T, transiently transfected, on living cells; not shown: …
The description is as above. Conditions: one partner purified.

Experiment [12] addresses T3, NL-IL23R co-expressed with HaloTag …. Described as above. The conditions noted are these: one partner purified.
Experiment [13] addresses T4, NL-IL12Rβ1 co-expressed with unlabeled …. The experiment can be described thus: FRET or BRET; NanoBRET saturation binding of IL23-TMR to living HEK293T cells transfected with NL-IL12Rβ1 and IL23R at a 1:10 ratio (2.2 μg total DNA per well); HBSS with 1 mg/ml BSA, 1 h; non-specific binding with 100 nM unlabelled IL-23. Conditions: one partner purified.

As usually defined, the Ki is the equilibrium dissociation constant of an inhibitor or competing ligand from its target. High values mean lower affinity, low ones higher affinity. One may read the Kd as the free concentration of one partner at which half of the binding sites on the other are occupied at equilibrium, for simple one-to-one binding.

B1: Recombinant IL-23 protein (unlabeled) (ligand)
chain 1: RAVPGGSSPAWTQCQQLSQKLCTLAWSAHPLVGHMDLREEGDEETTNDVPHIQCGDGCDPQGLRDNSQFCLQRIHQGLIFYEKLLGSDIFTGEPSLLPDSPVGQLHASLLGLSQLLQPEGHHWETQQIPSLSPSQPWQRLLLRFKILRSLQAFVAVAARVFAHGAATLSP
chain 2: IWELKKDVYVVELDWYPDAPGEMVVLTCDTPEEDGITWTLDQSSEVLGSGKTLTIQVKEFGDAGQYTCHKGGEVLSHSLLLLHKKEDGIWSTDILKDQKEPKNKTFLRCEAKNYSGRFTCWWLTTISTDLTFSVKSSRGSSDPQGVTCGAATLSAERVRGDNKEYEYSVECQEDSACPAAEESLPIEVMVDAVHKLKYENYTSSFFIRDIIKPDPPKNLQLKPLKNSRQVEVSWEYPDTWSTPHSYFSLTFCVQVQGKSKREKKDRVFTDKTSATVICRKNASISVRAQDRYYSSSWSEWASVPCS
modifications: several mass peaks differing by 162 Da, most likely N-linked glycosylation
notes: IL23p19, the alpha subunit of IL-23, disulfide-linked to IL12p40; IL12p40, the beta subunit of IL-23, disulfide-linked to IL23p19; also called interleukin-23; unlabeled IL-23; source: HEK293-F, co-transduced with BacMam viruses (p19-His and p40), purified from the supernatant (Ni-Sepharose); gift of GlaxoSmithKline
B1: in experiment [1], the “EC50 of IL-23 for STAT3 phosphorylation (Tyr705, AlphaLISA SureFire Ultra), HEK293T cells, 30 min” value came out at 0.269 nM. Further, in experiment [2], the “EC50 of IL-23 for the increase in intra-receptor BRET between NL-IL23R and SNAP-IL12Rβ1 (AF488)” value stood at 0.0429 nM; the “potency (EC50) of IL-23 for STAT3 phosphorylation (Tyr705, AlphaLISA SureFire Ultra), HEK293T cells, 30 min” value (“potency (EC50)” below) came out at 0.15 nM. The “potency (EC50)” value in experiment [3] amounted to 0.154 nM. For the same molecule, the “EC50 of IL-23 for the increase in intra-receptor BRET between NL-IL12Rβ1 and HaloTag-IL23R” value in experiment [4] was 0.457 nM. For the same molecule, in [5], the “EC50 of IL-23 for the decrease in intra-receptor BRET between NL-IL23R and HaloTag-IL12Rβ1 (HT618)” value is 0.0436 nM; the “potency (EC50)” value is 0.199 nM. Further, the Ki in experiment [6] was 0.0316 nM and 0.0272 nM.

B2: TAMRA-conjugated IL-23 (ligand)
chain 1: B1 chain 1
chain 2: B1 chain 2
modifications: TAMRA (5(6)-carboxytetramethylrhodamine, coupled as NHS ester); 64.9% of TAMRA labels were located on IL23p19; sites not stated | TAMRA (labelled to a lesser extent than IL23p19; sites not stated); several mass peaks differing by 162 Da, most likely N-linked glycosylation
notes: IL23p19, the alpha subunit of IL-23, disulfide-linked to IL12p40; IL12p40, the beta subunit of IL-23, disulfide-linked to IL23p19; A mixture: by LC-MS 52.3% unlabeled, 29.5% single and 18.2% double labeled; by FCS/PCH 39.6% mono-labeled, 11.9% multi-labeled, 48.5% unlabeled; also called IL23-TMR; TAMRA-tagged IL-23; source: HEK293-F, co-transduced with BacMam viruses (p19-His and p40), purified …
For the molecule B2, the Kd in experiment [7] amounted to 0.454 ± 0.043 nM; in [8] it was 46.7 nM; in [9], 222 nM; in [10], 0.027 nM; in experiment [11], 30.1 nM; in experiment [12] it was 0.179 ± 0.008 nM. Besides, the values for the Kd in experiment [13] and in experiment [6] were 0.647 nM and 0.0351 nM, respectively. In addition, the “KD of the high-affinity site (two-site fit)” value in [8] was 0.028 nM. Besides, the “KD of the low-affinity site (two-site fit)” value in [8] is 72 nM.
